Test results as given in patent publication US20070128190A1 (GLENMARK PHARMACEUTICALS S A, published 2007).

T1: GST-human α2 I domain fusion protein (human, UniProt P17301 153-368)
T1 construct: the reverse primer ends at ...SIEGTV; also called GST-α2 I domain; hα2I; not shown: glutathione S-transferase tag encoded by vector pGEX-2TK
T1 sequence: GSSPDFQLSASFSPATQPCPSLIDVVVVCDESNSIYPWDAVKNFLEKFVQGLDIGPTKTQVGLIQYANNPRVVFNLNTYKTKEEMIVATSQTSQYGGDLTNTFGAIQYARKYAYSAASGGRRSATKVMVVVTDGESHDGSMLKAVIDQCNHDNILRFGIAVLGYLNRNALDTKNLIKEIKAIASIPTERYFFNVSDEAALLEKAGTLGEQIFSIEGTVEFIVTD

B1: TMC-2206 (antibody, mouse IgG1, V domains shown)
VH: QVQLKESGPGLVAPSQSLSITCTVSGFSLTNYGIHWVRQPPGKGLEWLGVIWARGFTNYNSALMSRLIITKDNSQSQVFLKMNSLQPDDSATYFCARANDGVYYAMDYWGQGTSVTVSS
VL: QFVLTQSPAFLSASPGEKVTMTCSANSSVNYIHWYQQKSGTSPKKWIYDTSKLASGVPVRFSGSGSGTSYSLTISSMETEDAATYYCQQWTTNPLTFGAGTRVELK
notes: murine IgG1/κ secreted by hybridoma BHA2.1; labelled with Eu-N1-ITC where used as tracer; also called BHA2.1
B2: Humanized TMC-2206 (hIgG4/κ VH12.0/VL10.0Q) (antibody)
heavy: not shown
light: DFVMTQSPAFLSVTPGEKVTITCSAQSSVNYIHWYQQKPDQAPKKLIYDTSKLASGVPSRFSGSGSGTDYTFTISSLEAEDAATYYCQQWTTNPLTFGQGTKVEIKRTVAAPSVFIFPPSDEQLKSGTASVVCLLNNFYPREAKVQWKVDNALQSGNSQESVTEQDSKDSTYSLSSTLTLSKADYEKHKVYACEVTHQGLSSPVTKSFNRGEC
notes: labelled with Eu or Alexa-488 in some assays

Assays:
[1] = biological target: human α2β1 integrin on human cells (platelets, leukocytes, HT1080) (human, UniProt P17301 30-1181; P05556 21-798); test: cell-based or functional assay
[2] = biological target: T2, human platelet α2β1 integrin (immobilized on microtiter plates) (human, UniProt P17301 30-1181; P05556 21-798); test: competition with Eu-TMC-2206 on human platelet α2β1-coated plate
T2 construct: plates custom-coated with human platelet α2β1 by GTI Inc; also called immobilized α2β1 integrin; α2β1-coated plates
Method: Exemplary IgG1 antibodies have a hVH 14.0 γ heavy chain (SEQ ID NO:181) or a hVH12.0 γ1 heavy chain (SEQ ID NO:182) and a hVL10.0Q light chain (SEQ ID NO:178). Exemplary IgG4 antibodies have a hVH14.0 γ4 heavy chain (SEQ ID NO:174) or a hVH12.0 γ4 heavy chain (SEQ ID NO:176) and a hVL 10.0Q light chain (SEQ ID NO:178). Purified antibodies were tested in the competition assay to compare potency by Kᵢ values as well as in the cell adhesion to collagen assay, where potency is measured as EC₅₀ values.

[3] = biological target: T2, human platelet α2β1 integrin …; test: competition with Eu-humanized TMC-2206 on human platelet α2β1-coated plate
Method: The MAb/bicarbonate mixture (0.250 mL) was gently mixed into a vial containing 0.2 mg N¹-(p-isothiocyanatobenzyl)-diethylenetriamine-N¹,N²,N³,N³-tetraacetic acid chelated with Eu³⁺ (Eu-N1-ITC; Perkin Elmer Life Sciences) and incubated overnight at 4° C. without stirring. The labeled antibody mixture was applied to a PD-10 column (GE Biosciences, Piscataway, N.J.) pre-equilibrated with Running Buffer (50 mM Tris, pH 7.4 and 138 mM NaCl). Fractions (0.5 mL) were collected and assayed for total protein (Bradford reagent; Bio-Rad Laboratories, Hercules, Calif.) using a SpectraMax 384 absorbance plate reader and for europium after 1:10.000 dilution in DELFIA Enhancement Solution (Perkin-Elmer) by time-resolved fluorescence (TRF) using a Victor2 multi-label plate reader (Perkin Elmer). The fractions that were positive for both protein and europium label were pooled, applied to a new PD-10 column, and samples collected and assayed for total protein and for europium content by TRF calibrated against a europium standard solution (Perkin-Elmer) to calculate the fluor : protein ratio. […] The plate was shaken (Titer Plate Shaker, speed setting of 5, 5 minutes at room temperature) and TRF intensities were read using the Victor2 multi-label plate reader. The KD values were calculated by Scatchard analyses.

[4] = biological target: T1, GST-human α2 I domain fusion protein; test: SPR (Biacore 2000), antibody captured, GST-α2 I domain in solution
[5] = biological target: human α2 integrin with endogenous hamster β1 on CHO cells (human; hamster); test: cell-based or functional assay
[6] = biological target: T2, human platelet α2β1 integrin …; test: equilibrium binding of Eu-labelled antibody to human platelet α2β1-coated plate, Scatchard
Method: Wells in a 96-well microtiter plate were coated with platelet α2β1-integrin (custom-coated with human platelet α2β1 by GTI Inc., WI) and then blocked with nonfat milk. […] After concentration in prewashed MicroSep concentrators [30-kDa cutoff; Pall Life Sciences at 9500 rpm (7000×g) in a JA-20 rotor (Beckman Instruments, Inc.] for 20 minutes at 4° C.), the antibody was adjusted to 4.0 mg/mL with PBS, 100 mM NaHCO₃, pH 9.3. The MAb/bicarbonate mixture (0.250 mL) was gently mixed into a vial containing 0.2 mg N¹-(p-isothiocyanatobenzyl)-diethylenetriamine-N¹,N²,N³,N³-tetraacetic acid chelated with Eu³⁺ (Eu-N1-ITC; Perkin Elmer Life Sciences) and incubated overnight at 4° C. without stirring. The labeled antibody mixture was applied to a PD-10 column (GE Biosciences, Piscataway, N.J.) pre-equilibrated with Running Buffer (50 mM Tris, pH 7.4 and 138 mM NaCl). Fractions (0.5 mL) were collected and assayed for total protein (Bradford reagent; Bio-Rad Laboratories, Hercules, Calif.) using a SpectraMax 384 absorbance plate reader and for europium after 1:10.000 dilution in DELFIA Enhancement Solution (Perkin-Elmer) by time-resolved fluorescence (TRF) using a Victor2 multi-label plate reader (Perkin Elmer). […]

[7] = biological target: T2, human platelet α2β1 integrin …; test: competition with Eu-humanized TMC-2206 on α2β1-coated plates
From the text: The inhibition curves were fitted with the “one site competition” model using Prism software (GraphPad, Inc.) to obtain IC₅₀ values and to calculate the Kᵢ using the equation of Cheng and Prusoff (1973) and the respective values for KD from above.
The cloning of the human, rhesus macaque, rat, and mouse α2 I domains were described in Example 12. Cynomolgus and additional rhesus monkey α2 I domains were cloned from cDNA derived from total RNA extracted from skin tissue (MediCorp, Inc., Montreal, QC).

| Binder | EC50 (nm), human platelets on human placenta Type I collagen (n = 1) [1] [nM] | Ki [2] [nM] | Ki [3] [nM] | Kd [4] [nM] | koff [4] [s⁻¹] | kon [4] [M⁻¹ s⁻¹] | EC50 (nM), cell adhesion to collagen assay [5] [nM] | Kd [6] [nM] | Ki [7] [nM] |
| --- | --- | --- | --- | --- | --- | --- | --- | --- | --- |
| B1 | 8.44 | 0.22 | 0.21 | 2.9 | 0.0011 | 380000 | 1.03 | 0.72 | 0.14 |
| B2 | 13.1 | 0.27 | 0.41 | 2.3 | 0.00082 | 350000 |  | 1.29 | 0.34 |
